Where no end group is shown, it is not given here. [ ]: non-standard residue; d: D form. Cha = N[C@@H](CC1CCCCC1)C(=O)O Some results are limits rather than exact numbers.

The labels stand for the following.
B1: [Ala^1,Arg^19]hPTH(1-31)NH2 (peptide)
peptide: AVSEIQLMHNLGKHLNSMRRVEWLRKKLQDV-NH2
notes: also called [Ala^1,Arg^19]PTH(1-31)NH2; [Ala^1,Arg^19]PTH(1-31)
B2: [Ala^1,Arg^19]hPTH(1-31)NH2 Leu^28→Glu (peptide)
peptide: AVSEIQLMHNLGKHLNSMRRVEWLRKKEQDV-NH2
B3: [Ala^1,Arg^19]hPTH(1-31)NH2 Trp^23→Glu (peptide)
peptide: AVSEIQLMHNLGKHLNSMRRVEELRKKLQDV-NH2
B4: [Ala^1,Arg^19]hPTH(1-31)NH2 Trp^23→Cha (peptide)
peptide: AVSEIQLMHNLGKHLNSMRRVE[Cha]LRKKLQDV-NH2
modifications: N-terminus assumed
SMILES: CC[C@H](C)[C@H](NC(=O)[C@H](CCC(=O)O)NC(=O)[C@H](CO)NC(=O)[C@@H](NC(=O)[C@H](C)N)C(C)C)C(=O)N[C@@H](CCC(N)=O)C(=O)N[C@@H](CC(C)C)C(=O)N[C@@H](CCSC)C(=O)N[C@@H](Cc1c[nH]cn1)C(=O)N[C@@H](CC(N)=O)C(=O)N[C@@H](CC(C)C)C(=O)NCC(=O)N[C@@H](CCCCN)C(=O)N[C@@H](Cc1c[nH]cn1)C(=O)N[C@@H](CC(C)C)C(=O)N[C@@H](CC(N)=O)C(=O)N[C@@H](CO)C(=O)N[C@@H](CCSC)C(=O)N[C@@H](CCCNC(=N)N)C(=O)N[C@@H](CCCNC(=N)N)C(=O)N[C@H](C(=O)N[C@@H](CCC(=O)O)C(=O)N[C@@H](CC1CCCCC1)C(=O)N[C@@H](CC(C)C)C(=O)N[C@@H](CCCNC(=N)N)C(=O)N[C@@H](CCCCN)C(=O)N[C@@H](CCCCN)C(=O)N[C@@H](CC(C)C)C(=O)N[C@@H](CCC(N)=O)C(=O)N[C@@H](CC(=O)O)C(=O)N[C@H](C(N)=O)C(C)C)C(C)C
B5: [Ala^1,Arg^19]hPTH(1-31)NH2 Arg^20→Glu (peptide)
peptide: AVSEIQLMHNLGKHLNSMREVEWLRKKLQDV-NH2
B6: [Ala^1,Arg^19]hPTH(1-31)NH2 Leu^24→Glu (peptide)
peptide: AVSEIQLMHNLGKHLNSMRRVEWERKKLQDV-NH2
B7: [Ala^1,Arg^19]hPTH(1-31)NH2 Arg^20→Cha (peptide)
peptide: AVSEIQLMHNLGKHLNSMR[Cha]VEWLRKKLQDV-NH2
modifications: N-terminus assumed
SMILES: CC[C@H](C)[C@H](NC(=O)[C@H](CCC(=O)O)NC(=O)[C@H](CO)NC(=O)[C@@H](NC(=O)[C@H](C)N)C(C)C)C(=O)N[C@@H](CCC(N)=O)C(=O)N[C@@H](CC(C)C)C(=O)N[C@@H](CCSC)C(=O)N[C@@H](Cc1c[nH]cn1)C(=O)N[C@@H](CC(N)=O)C(=O)N[C@@H](CC(C)C)C(=O)NCC(=O)N[C@@H](CCCCN)C(=O)N[C@@H](Cc1c[nH]cn1)C(=O)N[C@@H](CC(C)C)C(=O)N[C@@H](CC(N)=O)C(=O)N[C@@H](CO)C(=O)N[C@@H](CCSC)C(=O)N[C@@H](CCCNC(=N)N)C(=O)N[C@@H](CC1CCCCC1)C(=O)N[C@H](C(=O)N[C@@H](CCC(=O)O)C(=O)N[C@@H](Cc1c[nH]c2ccccc12)C(=O)N[C@@H](CC(C)C)C(=O)N[C@@H](CCCNC(=N)N)C(=O)N[C@@H](CCCCN)C(=O)N[C@@H](CCCCN)C(=O)N[C@@H](CC(C)C)C(=O)N[C@@H](CCC(N)=O)C(=O)N[C@@H](CC(=O)O)C(=O)N[C@H](C(N)=O)C(C)C)C(C)C
notes: also called Cha^20 analog

For the first assay, the target named is T1, wild-type human PTHR (human, UniProt Q03431 27-593).
T1 construct: whole, on cells; also called PTHR-WT; intact PTHR
T1 sequence (looked up): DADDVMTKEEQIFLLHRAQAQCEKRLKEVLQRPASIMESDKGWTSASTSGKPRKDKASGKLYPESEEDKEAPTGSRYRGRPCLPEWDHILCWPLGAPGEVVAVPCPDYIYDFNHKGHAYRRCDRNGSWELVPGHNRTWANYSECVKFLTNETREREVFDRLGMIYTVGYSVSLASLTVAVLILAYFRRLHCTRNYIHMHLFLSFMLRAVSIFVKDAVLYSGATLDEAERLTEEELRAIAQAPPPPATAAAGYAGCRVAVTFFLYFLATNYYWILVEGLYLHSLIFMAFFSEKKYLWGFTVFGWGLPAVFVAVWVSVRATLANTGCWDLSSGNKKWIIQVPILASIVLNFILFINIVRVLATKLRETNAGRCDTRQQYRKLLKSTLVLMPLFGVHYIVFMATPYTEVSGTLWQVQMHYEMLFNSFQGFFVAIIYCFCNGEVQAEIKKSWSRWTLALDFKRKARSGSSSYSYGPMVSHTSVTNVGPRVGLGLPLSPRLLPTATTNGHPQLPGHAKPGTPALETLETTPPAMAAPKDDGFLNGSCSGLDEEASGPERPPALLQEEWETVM
Description: competition binding, HKRK-B7 cells, 125I-PTH(1-34) tracer. The method in brief:
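Intact HKRK-B7 cells stably expressing hPTHR incubated 4 h at 15° C with ¹²⁵I-PTH(1-34) tracer and unlabeled peptide (3×10⁻⁹ to 1×10⁻⁵ M). Nonspecific binding defined with 1×10⁻⁶ M PTH(1-31)NH₂. Bound activity counted after lysis and expressed as % specific binding without competitor; values in nM, mean ± s.e.m.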
As to B1, the IC50 came to 38 nM.

B2: the IC50 amounted to 10400 nM.

B3: the IC50 stood at 6040 nM.

In the case of B4, the IC50 came to 546 nM.

On to B5, for which the IC50 is > 10000 nM.

For the molecule B6, the IC50 was > 10000 nM.

Regarding B7, the half-maximal inhibitory concentration (IC50) is 4740 nM.

Another assay concerns the target T2, rat PTHR endogenously expressed in ROS 17/2.8 cells (rat, UniProt P25961 27-591).
T2 sequence (looked up): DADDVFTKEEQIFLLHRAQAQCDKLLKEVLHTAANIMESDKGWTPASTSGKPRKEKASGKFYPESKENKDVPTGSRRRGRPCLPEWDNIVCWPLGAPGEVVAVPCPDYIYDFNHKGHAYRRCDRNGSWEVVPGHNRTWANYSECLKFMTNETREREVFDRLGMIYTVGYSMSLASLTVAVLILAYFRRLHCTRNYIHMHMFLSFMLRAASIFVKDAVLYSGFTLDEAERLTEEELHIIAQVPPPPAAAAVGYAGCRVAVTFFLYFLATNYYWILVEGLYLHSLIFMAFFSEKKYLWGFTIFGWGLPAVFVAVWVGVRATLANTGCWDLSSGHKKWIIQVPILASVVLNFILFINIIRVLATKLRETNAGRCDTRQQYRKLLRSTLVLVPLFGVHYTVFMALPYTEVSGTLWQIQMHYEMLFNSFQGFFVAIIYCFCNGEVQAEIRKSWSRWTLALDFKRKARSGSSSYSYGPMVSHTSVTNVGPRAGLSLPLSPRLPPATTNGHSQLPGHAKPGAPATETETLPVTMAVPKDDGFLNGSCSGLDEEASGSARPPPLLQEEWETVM
In words: cell-based or functional assay.
For the molecule B1, the “cAMP EC50, ROS 17/2.8 cells” value turned out to be 0.78 nM.

For B2, the “cAMP EC50, ROS 17/2.8 cells” value came out at 11 nM.

On to B3, for which the “cAMP EC50, ROS 17/2.8 cells” value came out at 4 nM.

With B4, the “cAMP EC50, ROS 17/2.8 cells” value is 0.82 nM.

As to B5, the “cAMP EC50, ROS 17/2.8 cells” value was 59 nM.

In the case of B6, the “cAMP EC50, ROS 17/2.8 cells” value was determined as 250 nM.

Regarding B7, the “cAMP EC50, ROS 17/2.8 cells” value worked out at 7.5 nM.

In another assay the target is T1, wild-type human PTHR. In words: competition binding, HKRK-B7 cells, 125I-PTH(1-34) tracer. This is another data set of the same source.
For B4, the “fold reduction in binding affinity vs [Ala^1,Arg^19]PTH(1-31)NH2” value (shortened to “fold reduction in binding affinity”) came out at 14 fold and the “fold reduction in binding vs [Ala^1,Arg^19]PTH(1-31)NH2” value is ~12 fold.

Take B5: the “fold reduction in binding affinity” value was ≥ 150 fold.

For B6, the “fold reduction in binding affinity” value is ≥ 150 fold.

For the molecule B7, the “fold reduction in binding affinity” value turned out to be 120 fold.

Another assay addresses PTHR-delNt (human) (UniProt Q03431). Description: competition binding, COS-7 membranes, 125I-[Aib1,3,M]PTH(1-15) tracer.
Molecule B1 gave a half-inhibitory concentration (IC50) of 397 nM.

With B2, the IC50 stood at 974 nM and the fold reduction in binding affinity vs [Ala^1,Arg^19]PTH(1-31)NH2 is < 3 fold.

For B3, the IC50 was 434 nM and the fold reduction in binding affinity vs [Ala^1,Arg^19]PTH(1-31)NH2 was < 3 fold.

B4: the IC50 is 867 nM and the fold change in binding affinity vs [Ala^1,Arg^19]PTH(1-31)NH2 is < 3 fold.

B5: the IC50 is 776 nM and the fold reduction in binding affinity vs [Ala^1,Arg^19]PTH(1-31)NH2 was < 3 fold.

For B6, the IC50 turned out to be 1040 nM and the fold reduction in binding affinity vs [Ala^1,Arg^19]PTH(1-31)NH2 is < 3 fold.

For B7, the IC50 came out at 632 nM and the fold change in binding affinity vs [Ala^1,Arg^19]PTH(1-31)NH2 was < 3 fold.

The next assay has as its target T2, rat PTHR endogenously expressed in ROS …. In words: competition binding, ROS 17/2.8 cells, 125I-PTH(1-34) tracer. The method, then: Receptor binding—Binding to the wild-type human PTHR in intact HKRK-B7 cells and ROS 17/2.8 cells was assessed using ¹²⁵I-PTH(1-34) as a tracer radioligand, as described (Shimizu, M., (2001) Endocrinology 142:3068-3074). In brief, the cells in 24-well plates (about 500,000 cells per well) were incubated in binding buffer containing radioligand (about 100,000 cpm per well) with or without unlabeled peptide ligand (3×10⁻⁹ to 1×10⁻⁵ M) for four hours at 15° C. The binding mixture was then removed by aspiration, the cells were rinsed three times with binding buffer, lysed in 1 M NaOH, and the entire lysate was counted for gamma-irradiation in a gamma counter. Binding to PTHR-delNt in COS-7 cell membranes was assessed in 96-well, vacuum filtration plates (Multiscreen-Durapore HV, […], Millipore Corp., Millford, Mass.) using ¹²⁵I-[Aib^{1,3},M]PTH(1-15)NH₂ as a tracer radioligand, as described (Dean, T., (2006) Mol Endocrinol 20:931-942). In brief, cell membranes (20 μg/well) were incubated in membrane binding buffer containing radioligand (30,000 cpm/well) with or without unlabeled peptide ligand (3×10⁻⁹ to 1×10⁻⁵ M) for 90 minutes at 21° C. The plates were then subject to rapid vacuum filtration, the filters were washed once with buffer, detached from the plate and counted for gamma-irradiation in a gamma counter. Non-specific binding was defined as the binding observed in the presence of 1×10⁻⁶ M PTH(1-31)NH₂ for HKRK-B7 and ROS 17/2.8 cells, and 1×10⁻⁶ M [Aib^{1,3},M]PTH(1-15)NH₂ for PTHR-delNt. Specifically bound radioactivity was calculated as a percentage of the radioactivity specifically bound in the absence of competing ligand.
Effects on cAMP and IP signaling—Selected analogs of [Ala¹,Arg¹⁹]hPTH(1-31)NH₂ with substitutions that markedly impaired binding to HKRK-B7 cells were assessed for their capacity to bind to the PTHR in ROS 17/2.8 cells and to stimulate cAMP-signaling responses in these cells. These bone-derived cells endogenously express the rat PTHR at a more physiological level than is found in HKRK-B7 cells (approximately 80,000 PTHRs per cell vs. 950,000 PTHRs per cell) and, have generally been found (data not shown) to yield closer correlations between PTH analog binding affinity and cAMP-signaling potency than do HKRK-B7 cells, presumably due to their lower PTHR expression level.
B1 came in with an IC50 of 1.6 nM.

Take B2: the half-maximal inhibitory concentration (IC50) was 3100 nM.

The molecule B3 registered a 50% inhibitory concentration (IC50) of 220 nM.

As for B4, the IC50 came out at 19 nM.

As for B5, the concentration for half-maximal inhibition (IC50) stood at 5800 nM.

Consider B6, for which the IC50 stood at 29000 nM.

Take B7: the IC50 came to 290 nM.
